From US20210024651A1
pKd: −log10 of the molar value.

What was measured:
moFcgRIV [1] = assay: -; reported
moFcRn [2] = assay: -; reported
moFcgRIIb = assay: -; reported
moFcgRIII = assay: -; reported
moFcRn [3] = assay: BLI
moFcgRIV [4] = assay: BLI

Substance	pKd (moFcgRIV [1])	pKd (moFcRn [2])	pKd (moFcgRIIb)	pKd (moFcgRIII)	pKd (moFcRn [3])	pKd (moFcgRIV [4])
hIgG1	6.55	7.14	5.96	5.03	–	–
hIgG2	–	7.20	5.10	5.01	–	–
Seribantumab hIgG2	–	–	–	–	8.17	–
mIgG1	–	5.94	6.52	5.49	–	–
mIgG3	–	6.85	–	–	–	–
LJM716 hIgG1	–	–	–	–	7.89	6.15
hIgG4	4.59	6.94	4.96	4.68	–	–
hIgG3	6.77	6.64	6.15	5.89	–	–
mIgG2a	7.46	6.31	5.62	5.84	–	–
mIgG2b	7.23	6.26	6.35	5.81	–	–
